# Where two headings read alike, the source gives them in different places.
# B1: Vinculin tail (VT) 881-1066 (protein)
# chain: KDEEFPEQKAGEAINQPMMMAARQLHDEARKWSSKPVTVINEAAEAGVDIDEEDDADVEFSLPSDIEDDYEPELLLMPTNQPVNQPILAAAQSLHREATKWSSKGNDIIAAAKRMALLMAEMSRLVRGGSGNKRALIQCAKDIAKASDEVTRLAKEVAKQCTDKRIRTNLLQVCERIPTISTQLKI
# Tests used:
# Experiment in all cases: co-sedimentation
# [1] = target: actin (Saccharomyces cerevisiae, UniProt P60010)
# [2] = target: T1, F-actin (Saccharomyces cerevisiae, UniProt P60010)
# [3] = target: T1, F-actin; remark: listed apart in the source
binder,measurement,setting,value
B1,Kd,[1],370 nM
same,Kd,[2],1480 nM
same,Kd,[3],1310 nM
